Laboratory results: US20060240002A1, “Methods of inhibiting angiogenesis-dependent conditions mediated by cryptic epitopes of extracellular matrix components” (priority 2005, published 2006)
Each block holds one substance with its values, some of them ahead of it.

Legend:
[1] = molecular target: denatured collagen type-IV; assay: cell-based or functional assay
αvβ3 integrin (human) = αvβ3 integrin (human) (UniProt P06756); assay: cell-based or functional assay
P27^KIP1 [2] = assay: Western blot of P27^KIP1 in B16F10 melanoma cells on denatured collagen; format: cell-based, murine; conditions: 24 hours
Procedure: (§1) To examine the effect of CLK-peptide on the expression of cyclin-dependent […] P27^KIP1, B16F10 melanoma and GL261 glioblastoma cells were resuspended in adhesion buffer in the presence or absence of CLK-peptide or control peptide. Cells were added to culture plates coated with denatured collagen and allowed to incubate for 24 hours. Total cell lysates were prepared and the proteins analyzed by Western Blot analysis.

P27^KIP1 [3] = assay: Western blot of P27^KIP1 in GL261 glioblastoma cells on denatured collagen; format: cell-based; conditions: 24 hours
Procedure: as §1

P21^CIP1 = assay: Western blot of P21^CIP1 in M21 cells; format: cell-based, human; conditions: 12 hours, 1% serum-containing medium
Procedure: The effect of CLK-peptide on the expression of P21^CIP1 was examined by Western Blot analysis. M21 cells were resuspended in adhesion buffer in the presence or absence of CLK-peptide and allowed to incubate for 12 hours in 1% serum-containing medium. Total cell lysates were prepared and the levels of P21^CIP1 and actin analyzed by Western Blot analysis.

B16F10 tumor cells [4] = assay: Differential cDNA array analysis of B16F10 tumor cells treated with peptides (Example X); format: cell-based, murine; conditions: 12 hours, Example X written in present tense
Procedure: To evaluate the effect of inhibiting the HUIV26 cryptic collagen epitope using the SLK- and CLK-Peptides, an Affymetrix™-based differential cDNA array analysis is performed using B16F10 tumor cells treated or not treated with SLK- or CLK-peptide. Non-tissue culture treated dishes are coated overnight with 100 μg/ml of denatured collagen IV in PBS. The next morning the plates are washed and incubated in blocking solution (1% BSA in PBS) for approximately 30 minutes. Tumor cells (7×10^6) are resuspended in serum free media and added to each plate in the presence or absence of CLK-Peptide, SLK-Peptide or a control peptide. The cells are allowed to incubate for a total of 12 hours.
Following the 12-hour incubation period, the cells are harvested and the RNA is isolated using both a TRIzol reagent and the Qiagen Rneasy Mini Protocol for RNA Cleanup. After RNA extraction, the amount and quality of RNA is quantified utilizing a spectrophotomer. 5-8 μg of total RNA is utilized to synthesize double-stranded cDNA. The first cDNA strand is obtained using a reaction mixture containing a T7-(dT)24 Primer, 1× First Strand Buffer, 0.1M DTT and 10 mM dNTP mix in addition to the extracted RNA. The tubes are incubated at 42° C. for approximately 1.5 hours. […]

B16F10 tumor cells [5] = assay: Real time quantitative RT-PCR of B16F10 cells treated with peptides (Example X); format: cell-based, murine; conditions: vs control peptide, Example X written in present tense
Procedure: Relative expression levels of genes are assessed by both real time quantitative RT-PCR and Western Blot analysis. Tumor cells (B16F10) are allowed to interact with denatured collagen type-IV in the presence or absence of the SLK-peptide, CLK-peptide, or control peptide. Whole cell lysates are prepared from the various cell samples.
Real Time quantitative RT-PCR is carried out essentially as described with some modifications (Livak et al., Method 2001, 25:402-408). Total RNA is isolated using RNeasy miniprep columns (Qiagen, Valencia Calif.) according to the manufacturer's instructions. Total RNA (1 μg) is reverse transcribed using 1× Reverse Transcriptase Buffer, MgCl2 (3 mM), dNTP (2.0 mM), RNAse inhibitor (0.2 U/μl), random hexamer primers (0.5 mM), and MMLV reverse transcriptase (0.3 U/μl) in 20 μl reactions using a 3-step cycle (Promega, Madison, Wis.). Real-time fluorescence detection is carried out using an ABI Prism 7900 Sequence Detection System. Reactions are carried out in microAmp 96 well reaction plates. Primers and probes are designed using Primer 3 version 2 and ENSEMBL software (Promega).

B16F10 tumor cells [6] = assay: Western blot of B16F10 cells treated with peptides (Example X); format: cell-based, murine; conditions: B16F10 cells on denatured collagen type-IV; vs no treatment or control peptide; Example X written in present tense
Procedure: Western blot analyses indicate a corresponding increase in protein levels. Western blotting was performed as previously described, by coating non-tissue culture treated plates with denatured collagen type-IV (10.0 μg/ml). Equal numbers of tumor cells (B16F10) from sub-confluent cultures are harvested, washed and added to the coated plates in the presence or absence of SLK-peptide, CLK-peptide, or control peptide, and allowed to incubate in 1.0% serum-containing medium. Cells are harvested, washed, and lysed in 1.0% Triton X-100 buffer containing 300 mM NaCl, 50 mM Tris (pH 7.0) and 1× protease inhibitor cocktail. Equal amounts (25 μg/lane) of tumor cell lysates are separated by SDS Page and transferred to nitrocellulose membranes. Membranes are probed by incubation with either polyclonal antibodies directed to P21^CIP1 or Actin (Santa Cruz) as described previously (Brooks et al., Cell 1998, 92: 391-400; Petitclerc et al., Cancer Res. 1999, 59: 2724-2730). Western blots are visualized by a chemiluminesence detection system (Amersham Life Sciences).

Chain of UniProt P06756 (P06756 31-1048, chain 1 of 2): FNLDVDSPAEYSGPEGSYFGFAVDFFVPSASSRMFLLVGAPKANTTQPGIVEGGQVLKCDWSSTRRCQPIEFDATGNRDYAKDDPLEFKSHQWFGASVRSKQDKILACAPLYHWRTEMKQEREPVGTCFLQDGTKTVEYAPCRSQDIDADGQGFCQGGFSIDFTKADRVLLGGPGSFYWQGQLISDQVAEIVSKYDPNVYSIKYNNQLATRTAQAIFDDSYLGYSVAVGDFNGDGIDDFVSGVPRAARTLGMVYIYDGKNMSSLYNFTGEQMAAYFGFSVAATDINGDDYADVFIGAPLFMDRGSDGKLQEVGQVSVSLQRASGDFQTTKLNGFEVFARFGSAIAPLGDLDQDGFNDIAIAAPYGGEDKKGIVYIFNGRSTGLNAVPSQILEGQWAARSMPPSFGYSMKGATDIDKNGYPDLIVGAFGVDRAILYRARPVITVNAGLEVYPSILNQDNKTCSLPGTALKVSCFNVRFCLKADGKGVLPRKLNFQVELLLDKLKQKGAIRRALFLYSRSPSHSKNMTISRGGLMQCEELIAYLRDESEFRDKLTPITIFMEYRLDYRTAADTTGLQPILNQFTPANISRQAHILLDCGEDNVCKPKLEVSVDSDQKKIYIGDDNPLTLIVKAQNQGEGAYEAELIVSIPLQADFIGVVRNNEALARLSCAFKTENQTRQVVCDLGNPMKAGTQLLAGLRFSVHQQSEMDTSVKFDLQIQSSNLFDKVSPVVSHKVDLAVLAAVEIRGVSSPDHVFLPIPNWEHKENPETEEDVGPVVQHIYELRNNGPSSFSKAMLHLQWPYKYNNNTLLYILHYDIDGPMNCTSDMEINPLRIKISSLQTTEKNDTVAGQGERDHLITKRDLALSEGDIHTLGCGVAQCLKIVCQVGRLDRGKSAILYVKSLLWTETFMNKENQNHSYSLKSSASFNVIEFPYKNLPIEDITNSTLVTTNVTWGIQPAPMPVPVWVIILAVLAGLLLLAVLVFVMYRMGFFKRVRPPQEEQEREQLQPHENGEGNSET
Chain of UniProt P06756 (P05106 27-788, chain 2 of 2, further chain): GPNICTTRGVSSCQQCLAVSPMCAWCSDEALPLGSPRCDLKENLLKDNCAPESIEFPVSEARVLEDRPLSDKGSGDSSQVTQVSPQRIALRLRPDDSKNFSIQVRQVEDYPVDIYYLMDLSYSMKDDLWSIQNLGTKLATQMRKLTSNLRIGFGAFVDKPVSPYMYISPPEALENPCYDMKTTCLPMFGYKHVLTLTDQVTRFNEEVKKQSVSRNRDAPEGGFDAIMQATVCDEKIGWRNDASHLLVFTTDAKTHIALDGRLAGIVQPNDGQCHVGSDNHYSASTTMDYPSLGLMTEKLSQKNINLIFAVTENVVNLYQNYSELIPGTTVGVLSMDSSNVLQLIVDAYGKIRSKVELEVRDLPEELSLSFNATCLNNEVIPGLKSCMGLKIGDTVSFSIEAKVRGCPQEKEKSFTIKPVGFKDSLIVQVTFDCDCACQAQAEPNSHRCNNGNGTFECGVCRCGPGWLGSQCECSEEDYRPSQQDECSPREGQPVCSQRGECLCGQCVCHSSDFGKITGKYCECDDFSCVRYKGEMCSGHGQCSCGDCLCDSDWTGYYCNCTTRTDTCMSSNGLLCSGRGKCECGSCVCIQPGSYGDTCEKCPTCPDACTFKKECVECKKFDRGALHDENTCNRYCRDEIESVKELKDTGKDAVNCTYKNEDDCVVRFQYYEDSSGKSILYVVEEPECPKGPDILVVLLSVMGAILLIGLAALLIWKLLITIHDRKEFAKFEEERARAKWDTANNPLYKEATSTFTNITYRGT

Substance: Mab LM609 (antibody)
relative level of TSP-1 in M21 cells on denatured collagen type-IV (real-time PCR) (αvβ3 integrin (human)): 8 fold

Substance: NH2—C-L-K-Q-N-G-G-N—F—S-L-G-COOH (H-CLKQNGGNFSLG-OH) [CLK-peptide]
expression of P27^KIP1 (Western blot) (P27^KIP1 [2]): significant upregulation
expression of P27^KIP1 (Western blot) (P27^KIP1 [3]): significant upregulation
expression of P21^CIP1 (Western blot) (P21^CIP1): significant upregulation
expression of certain genes (cDNA array) (B16F10 tumor cells [4]): significant increase
relative levels of certain RNAs (RT-PCR) (B16F10 tumor cells [5]): significant increase in the relative levels of certain RNAs and significant decrease in other RNAs
expression of certain proteins (Western blot) (B16F10 tumor cells [6]): significant increase in expression of certain proteins and a significant decrease in expression of other proteins

Substance: NH2—S-L-K-Q-N-G-G-N—F—S-L-C—COOH (H-SLKQNGGNFSLC-OH) [SLK-peptide]
expression of certain genes (cDNA array) (B16F10 tumor cells [4]): significant increase
relative levels of certain RNAs (RT-PCR) (B16F10 tumor cells [5]): significant increase in the relative levels of certain RNAs and significant decrease in other RNAs
expression of certain proteins (Western blot) (B16F10 tumor cells [6]): significant increase in expression of certain proteins and a significant decrease in expression of other proteins

Next, values leading:

relative level of P21^CIP1 mRNA in HUVECs (real time RT-PCR) [1]: 10 fold
relative level of P27^KIP1 mRNA in HUVECs (real time RT-PCR) [1]: > 5 fold
Substance: Mab HUI77 (antibody)

TSP-1 mRNA levels in HUVECs (real-time PCR) [1]: 6 fold
adhesion of B16F10 cells to denatured collagen type-IV [1]: 50 % inhibition
expression of P21^CIP1 protein in B16F10 cells (Western blot) [1]: 2 fold
migration of B16F10 tumor cells on denatured collagen type-IV [1]: 50 % inhibition
relative level of P21^CIP1 mRNA in B16F10 cells (real time RT-PCR) [1]: 2.3 fold
relative levels of IGFBP-4 RNA in M21 cells (RT-PCR) [1]: 115 fold
relative levels of IGFBP-4 mRNA in HUVECs (RT-PCR) [1]: > 10 fold
relative levels of Id-1 in M21 cells (real-time PCR) (fold decrease) [1]: 2
relative levels of TSP-1 RNA in M21 cells (real-time PCR) [1]: 7 fold
Substance: Mab HUIV26 (antibody)
